The chains are these.
B1: HDV Ribozyme (parent)
chain: GGCCGGCAUGGUCCCAGCCUCCUCGCUGGCGCCGGCUGGGCAACAUUCCGAGGGGACCGUCCCCUCGGUAAUGGCGAAUGGGACCCA

Variants of B1 are the subject of the series. The experiment in a line: self-cleavage, relative activity (ratio to wild type); higher = more cleavage; co-transcriptional.
With C7A G68A, the self-cleavage was 0.464.

On to A8C C21G, for which the self-cleavage worked out at 0.0594.

Regarding C7G C57A, the self-cleavage stood at 0.434.

Regarding C7U G59A, the self-cleavage was 0.8.

Take C7A G50C: the self-cleavage was determined as 0.415.

On to C7U C57G, for which the self-cleavage amounted to 1.2.

Regarding C7U C63U, the self-cleavage worked out at 0.918.

As to C7U A56U, the self-cleavage came to 0.739.

Take A8G G17U: the self-cleavage was 0.554.

Regarding C7A G35C, the self-cleavage was found to be 0.0665.

As to G6C G76C, the self-cleavage amounted to 0.364.

For C7G A71C, the self-cleavage worked out at 0.222.

Take C7G G29C: the self-cleavage is 0.0615.

As to C7U C62A, the self-cleavage stood at 0.764.

On to C7A C22U, for which the self-cleavage was determined as 0.

For C7A C22A, the self-cleavage worked out at 0.0941.

Consider A8C C57U, for which the self-cleavage was 0.895.

For the variant C7G A43U, the self-cleavage was 0.0573.

Regarding A8C U20A, the self-cleavage was found to be 0.0615.

Take G6U A78G: the self-cleavage was 0.229.

As to G6U C7G, the self-cleavage was determined as 0.

On to C7U C22U, for which the self-cleavage was found to be 0.394.

As for C7G G17C, the self-cleavage is 0.

On to G6C U65A, for which the self-cleavage came out at 0.104.

For C7G C32A, the self-cleavage was found to be 0.

As for A8G G68C, the self-cleavage is 1.06.

Consider C7A C33U, for which the self-cleavage is 0.148.

Take C7U G74A: the self-cleavage was found to be 0.204.

In the case of C7G C62A, the self-cleavage was found to be 0.

As for C7G C62G, the self-cleavage amounted to 0.111.

Regarding C7G U46G, the self-cleavage was 0.

A8C U72C: the self-cleavage is 0.185.

With C7G C19A, the self-cleavage stood at 0.0831.

Consider A8C G76C, for which the self-cleavage was found to be 0.705.

Regarding C7A A78U, the self-cleavage was found to be 0.0791.

Regarding A8C G10C, the self-cleavage was determined as 0.623.

As for A8C G10A, the self-cleavage stood at 0.95.

For the variant A8C G10U, the self-cleavage was determined as 0.415.

For the variant C7G U27A, the self-cleavage stood at 0.217.

Turning to C7G U27G, the self-cleavage turned out to be 0.256.

Consider A8C G40U, for which the self-cleavage turned out to be 0.345.

On to A8C G40C, for which the self-cleavage was determined as 0.242.

Turning to A8C A70G, the self-cleavage is 0.782.

Regarding A8C A70U, the self-cleavage was 0.623.

As for C7U G28U, the self-cleavage was 0.0712.

In the case of C7A G76U, the self-cleavage came out at 0.849.

Regarding C7A A43U, the self-cleavage stood at 0.0386.

Regarding A8G G74U, the self-cleavage came out at 0.111.

Turning to G6U A77C, the self-cleavage worked out at 0.332.

In the case of A8G A42C, the self-cleavage is 0.0573.

For the variant G6U C66A, the self-cleavage came out at 0.443.

For G6U C66G, the self-cleavage stood at 0.54.

A8C U27A: the self-cleavage worked out at 0.867.

Consider C7G G74C, for which the self-cleavage was determined as 0.0475.

In the case of C7G G74A, the self-cleavage was determined as 0.138.

Consider C7U G25A, for which the self-cleavage is 0.212.

In the case of G6C G68A, the self-cleavage was 0.201.

On to C7G U69C, for which the self-cleavage came to 0.277.

As to C7G U69G, the self-cleavage stood at 0.293.

C7U C66U: the self-cleavage worked out at 0.665.

For C7G A8C, the self-cleavage was determined as 0.

As to C7G A8G, the self-cleavage worked out at 0.519.

On to C7U C36U, for which the self-cleavage was 0.399.

For the variant A8G C61G, the self-cleavage stood at 1.04.

Take A8G G53C: the self-cleavage amounted to 1.03.

Take G6C G54A: the self-cleavage came to 0.415.

As for G6U A83G, the self-cleavage turned out to be 0.17.

G6U A83U: the self-cleavage worked out at 0.256.

Take C7G C21U: the self-cleavage worked out at 0.0594.

Turning to C7A A87U, the self-cleavage is 0.505.

With C7G G35C, the self-cleavage worked out at 0.237.

Consider C7G G35A, for which the self-cleavage amounted to 0.156.

As for C7G U47A, the self-cleavage turned out to be 0.

For the variant G6U C32G, the self-cleavage was determined as 0.798.

For the variant G6U G31C, the self-cleavage worked out at 0.122.

As for G6U G31A, the self-cleavage amounted to 0.282.

Consider G6U G53A, for which the self-cleavage amounted to 0.821.

For the variant G6U G53C, the self-cleavage came out at 0.494.

Turning to G6U G17U, the self-cleavage was 0.0519.

As for G6U G11A, the self-cleavage was 0.0437.

For C7U C24G, the self-cleavage was determined as 0.0739.

For C7G C14G, the self-cleavage came out at 0.

Turning to G6U C21G, the self-cleavage turned out to be 0.0361.

As for G6U C21A, the self-cleavage is 0.227.

Turning to C7A G67A, the self-cleavage stood at 0.315.

Regarding C7A G67C, the self-cleavage amounted to 0.302.

As to C7G C33A, the self-cleavage stood at 0.196.

A8C G59U: the self-cleavage amounted to 0.804.

Regarding A8G G54U, the self-cleavage turned out to be 0.906.

In the case of C7A U69G, the self-cleavage amounted to 0.751.

C7U G82C: the self-cleavage is 0.227.

Regarding A8C U46A, the self-cleavage was found to be 0.217.

Regarding C7G C66G, the self-cleavage was 0.214.

On to C7G C66U, for which the self-cleavage is 0.231.

Turning to A8G C85A, the self-cleavage was 0.68.

In the case of C7A A56U, the self-cleavage was 0.617.

Regarding A8C G35A, the self-cleavage stood at 0.142.

For G6U G29A, the self-cleavage was 0.102.

Turning to G6U G29C, the self-cleavage amounted to 0.119.

With C7A U65A, the self-cleavage is 0.356.

For the variant C7A U65G, the self-cleavage stood at 0.246.

As for C7U U60A, the self-cleavage came to 0.682.

As to A8C C22U, the self-cleavage is 0.426.

As to C7U G54C, the self-cleavage amounted to 0.884.

In the case of C7U G54U, the self-cleavage amounted to 1.

As to A8C G17A, the self-cleavage was 0.831.

As for C7G C86A, the self-cleavage was found to be 0.426.

Regarding G6U U20G, the self-cleavage was 0.

In the case of C7A C32G, the self-cleavage came out at 0.

Turning to C7G C84A, the self-cleavage was determined as 0.111.

Take A8G G67C: the self-cleavage was 0.665.

As to A8C A87C, the self-cleavage is 0.805.

For A8C G38U, the self-cleavage was determined as 0.0875.

Turning to C7U A51C, the self-cleavage worked out at 0.643.

Regarding G6U C18A, the self-cleavage was 0.131.

On to G6U C18G, for which the self-cleavage was determined as 0.

Regarding C7U G38A, the self-cleavage was determined as 0.0496.

As for C7U G38U, the self-cleavage worked out at 0.109.

Regarding C7A C57G, the self-cleavage was 0.571.

For the variant C7A C84U, the self-cleavage stood at 0.366.

On to C7A G59C, for which the self-cleavage turned out to be 0.578.

As to A8G A56U, the self-cleavage is 0.831.

Take G6C G38A: the self-cleavage is 0.0396.

As for A8G G50A, the self-cleavage stood at 1.03.

For A8G G50C, the self-cleavage was 1.17.

As for A8C G53A, the self-cleavage was 0.846.

Take A8C G53U: the self-cleavage stood at 0.831.

For A8C C33G, the self-cleavage was found to be 0.0923.

A8G C26G: the self-cleavage stood at 1.36.

Take A8G G29U: the self-cleavage was determined as 0.

Take A8C G73A: the self-cleavage turned out to be 0.256.

Regarding C7G A83U, the self-cleavage worked out at 0.

Regarding C7A U47A, the self-cleavage is 0.697.

In the case of C7G A45G, the self-cleavage was 0.217.

For the variant C7U C44G, the self-cleavage is 0.464.

With C7U C44U, the self-cleavage was determined as 0.374.

As to C7U U9G, the self-cleavage amounted to 0.997.

Regarding C7U U9A, the self-cleavage was 0.86.

For A8C G74A, the self-cleavage turned out to be 0.314.

Consider G6U U47G, for which the self-cleavage is 0.554.

G6U G10C: the self-cleavage worked out at 0.364.

On to C7U C58A, for which the self-cleavage worked out at 0.88.

On to C7U G80U, for which the self-cleavage was 0.117.

Turning to G6C U69A, the self-cleavage was determined as 0.208.

For G6U C26U, the self-cleavage turned out to be 0.892.

In the case of C7U U46G, the self-cleavage was found to be 0.68.

For C7G C26U, the self-cleavage worked out at 0.356.

As to C7U A42U, the self-cleavage came to 0.196.

C7U A42C: the self-cleavage came out at 0.18.

Turning to C7U G34A, the self-cleavage is 0.0302.

As for C7A C64A, the self-cleavage amounted to 0.227.

For A8G G25U, the self-cleavage was found to be 0.35.

On to G6C U60G, for which the self-cleavage was found to be 0.312.

Regarding G6C U60C, the self-cleavage is 0.453.

Take C7U C49A: the self-cleavage was 0.974.

Consider G6U U79G, for which the self-cleavage was 0.185.

As for C7G G25C, the self-cleavage worked out at 0.

For C7A U20A, the self-cleavage stood at 0.

For A8C A56C, the self-cleavage stood at 0.692.

Regarding A8G A77C, the self-cleavage was 0.277.

In the case of C7G C13A, the self-cleavage came out at 0.

With C7G G52C, the self-cleavage amounted to 0.229.

For the variant A8G C21A, the self-cleavage worked out at 0.0415.

For C7G C24U, the self-cleavage came to 0.0692.

As for A8C G82U, the self-cleavage stood at 0.116.

On to C7G A56U, for which the self-cleavage was found to be 0.475.

Regarding C7U G68U, the self-cleavage was found to be 0.764.
